The values below come from publication PMC9352680, “A comprehensive thermodynamic model for RNA binding by the Saccharomyces cerevisiae Pumilio protein PUF4”.

For the data set, the target named is T1, PUF4 RNA-binding domain (Saccharomyces cerevisiae, UniProt P25339 537-888).
T1 sequence: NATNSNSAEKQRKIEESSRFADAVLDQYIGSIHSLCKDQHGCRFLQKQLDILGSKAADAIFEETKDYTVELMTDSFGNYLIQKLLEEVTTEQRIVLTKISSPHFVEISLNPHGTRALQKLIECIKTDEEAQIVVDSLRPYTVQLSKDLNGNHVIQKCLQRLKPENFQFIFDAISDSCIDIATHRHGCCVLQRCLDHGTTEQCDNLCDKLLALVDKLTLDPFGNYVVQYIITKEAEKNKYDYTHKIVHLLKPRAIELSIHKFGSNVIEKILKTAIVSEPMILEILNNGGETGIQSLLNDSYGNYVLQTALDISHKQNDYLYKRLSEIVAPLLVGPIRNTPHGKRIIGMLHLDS
The data set is described as follows: Mg; RNA-MaP; 20 mM Na-HEPES pH 7.4, 30 mM KOAc, 0.75 mM MgCl2, 0.1% Tween-20, 5% glycerol, 0.1 mg/mL BSA, 2 mM DTT; 25 C; 0.0125-409.6 nM protein. Conditions: tags: N-His6-TEV cleaved; C-SNAP kept, Cy3B-labelled; label: tethered on chip by stalled RNA polymerase.

Where only a bound is given, the exact number is not on record here.

Regarding ACAAACCGACACUAUUAAAACAAAC (ssRNA) [Id_ii_S3_P4E.4_K4.3_C4.2_[T-1G]_H4.3_A4.1_F4.1_T4.2_[G10A]_[T11A]], the Kd (commonly a measure of binding affinity in units of concentration) is over 2300 nM. With UCUCUUUGUAUUGUUUUCUCUU (ssRNA) [Ic_S1_P5E.1_K5.1_C5.1_H5.1_A5.1_[A7G]_F5.1_[A10T]_T5.1] the figure was 42.9 nM; with ACAAACCGACACUAUUAACACAAAC (ssRNA) [Id_ii_S3_P4E.4_K4.3_C4.2_[T-1G]_H4.3_A4.1_F4.1_T4.2_[G10A]_[T11C]], over 2300 nM; with ACAAACAUACACUAUUAAUACAAAC (ssRNA) [Id_ii_S3_P4E.4_K4.3_C4.2_[C-2A]_H4.3_A4.1_F4.1_T4.2_[G10A]], 740 nM.

On to ACAAACACACACUAUUAUUACAAAC (ssRNA) [Id_ii_S3_P4E.4_K4.3_C4.2_[C-2A]_[T-1C]_H4.3_A4.1_F4.1_T4.2_[G10T]], for which the Kd was over 2300 nM.

ACAAACAUACACUAUUACCACAAAC (ssRNA) [Id_ii_S3_P4E.4_K4.3_C4.2_[C-2A]_H4.3_A4.1_F4.1_T4.2_[G10C]_[T11C]] had a Kd of 740 nM. The value for ACAAACUCACACUAUUAAAACAAAC (ssRNA) [Id_ii_S3_P4E.4_K4.3_C4.2_[C-2T]_[T-1C]_H4.3_A4.1_F4.1_T4.2_[G10A]_[T11A]] was over 2300 nM. With ACAAACUCACACUAUUAACACAAAC (ssRNA) [Id_ii_S3_P4E.4_K4.3_C4.2_[C-2T]_[T-1C]_H4.3_A4.1_F4.1_T4.2_[G10A]_[T11C]] the figure was over 2300 nM; with ACAAACUGACACUAUUAUCACAAAC (ssRNA) [Id_ii_S3_P4E.4_K4.3_C4.2_[C-2T]_[T-1G]_H4.3_A4.1_F4.1_T4.2_[G10T]_[T11C]], over 2300 nM; with ACAAACUUACACUAUUAUAACAAAC (ssRNA) [Id_ii_S3_P4E.4_K4.3_C4.2_[C-2T]_H4.3_A4.1_F4.1_T4.2_[G10T]_[T11A]], 1640 nM. With ACAAACACACACUAUUACUACAAAC (ssRNA) [Id_ii_S3_P4E.4_K4.3_C4.2_[C-2A]_[T-1C]_H4.3_A4.1_F4.1_T4.2_[G10C]] the figure was over 2300 nM; with UCUCUUUGUAUUCUUCUCUCUU (ssRNA) [Ib_S1_P5E.1_K5.1_C5.1_H5.1_A5.1_[A7C]_F5.1_[A10C]_T5.1], 36.4 nM. Molecule ACAAACUGACACUAUUACGACAAAC (ssRNA) [Id_ii_S3_P4E.4_K4.3_C4.2_[C-2T]_[T-1G]_H4.3_A4.1_F4.1_T4.2_[G10C]_[T11G]] yielded a dissociation constant Kd of over 2300 nM. With ACAAACCCACACUAUUAACACAAAC (ssRNA) [Id_ii_S3_P4E.4_K4.3_C4.2_[T-1C]_H4.3_A4.1_F4.1_T4.2_[G10A]_[T11C]] the figure was over 2300 nM.

Molecule ACAAACCGACACUAUUACCACAAAC (ssRNA) [Id_ii_S3_P4E.4_K4.3_C4.2_[T-1G]_H4.3_A4.1_F4.1_T4.2_[G10C]_[T11C]] gave a Kd of over 2300 nM. The value for ACAAACAAACACUAUUACCACAAAC (ssRNA) [Id_ii_S3_P4E.4_K4.3_C4.2_[C-2A]_[T-1A]_H4.3_A4.1_F4.1_T4.2_[G10C]_[T11C]] was over 2300 nM; that for ACAAACGUACACUAUUAGCACAAAC (ssRNA) [Id_ii_S3_P4E.4_K4.3_C4.2_[C-2G]_H4.3_A4.1_F4.1_T4.2_[T11C]] was 70.4 nM; that for ACAAACUUACACUAUUAAAACAAAC (ssRNA) [Id_ii_S3_P4E.4_K4.3_C4.2_[C-2T]_H4.3_A4.1_F4.1_T4.2_[G10A]_[T11A]] was over 2300 nM. With ACAAACUGACACUAUUAUGACAAAC (ssRNA) [Id_ii_S3_P4E.4_K4.3_C4.2_[C-2T]_[T-1G]_H4.3_A4.1_F4.1_T4.2_[G10T]_[T11G]] the figure was over 2300 nM; with ACAAACGUACACUAUUAACACAAAC (ssRNA) [Id_ii_S3_P4E.4_K4.3_C4.2_[C-2G]_H4.3_A4.1_F4.1_T4.2_[G10A]_[T11C]], 39.8 nM. The value for ACAAACAUACACUAUUAUUACAAAC (ssRNA) [Id_ii_S3_P4E.4_K4.3_C4.2_[C-2A]_H4.3_A4.1_F4.1_T4.2_[G10T]] was 600 nM. With ACAAACCGACACUAUUAUUACAAAC (ssRNA) [Id_ii_S3_P4E.4_K4.3_C4.2_[T-1G]_H4.3_A4.1_F4.1_T4.2_[G10T]], the dissociation constant Kd was over 2300 nM. With ACAAACCGACACUAUUAUGACAAAC (ssRNA) [Id_ii_S3_P4E.4_K4.3_C4.2_[T-1G]_H4.3_A4.1_F4.1_T4.2_[G10T]_[T11G]] the figure was over 2300 nM. The value for ACAAACCCACACUAUUAAGACAAAC (ssRNA) [Id_ii_S3_P4E.4_K4.3_C4.2_[T-1C]_H4.3_A4.1_F4.1_T4.2_[G10A]_[T11G]] was over 2300 nM. With ACAAACAAACACUAUUAAGACAAAC (ssRNA) [Id_ii_S3_P4E.4_K4.3_C4.2_[C-2A]_[T-1A]_H4.3_A4.1_F4.1_T4.2_[G10A]_[T11G]] the figure was over 2300 nM.

On to ACAAACCCACACUAUUACCACAAAC (ssRNA) [Id_ii_S3_P4E.4_K4.3_C4.2_[T-1C]_H4.3_A4.1_F4.1_T4.2_[G10C]_[T11C]], for which the Kd was over 2300 nM. With ACAAACUAACACUAUUACGACAAAC (ssRNA) [Id_ii_S3_P4E.4_K4.3_C4.2_[C-2T]_[T-1A]_H4.3_A4.1_F4.1_T4.2_[G10C]_[T11G]], the Kd is over 2300 nM. The value for UCUCUUUGUAUUGUUCUCUCUU (ssRNA) [Ib_S1_P5E.1_K5.1_C5.1_H5.1_A5.1_[A7G]_F5.1_[A10C]_T5.1] was 45.8 nM; that for ACAAACUGACACUAUUAACACAAAC (ssRNA) [Id_ii_S3_P4E.4_K4.3_C4.2_[C-2T]_[T-1G]_H4.3_A4.1_F4.1_T4.2_[G10A]_[T11C]] was over 2300 nM; that for ACAAACACACACUAUUAACACAAAC (ssRNA) [Id_ii_S3_P4E.4_K4.3_C4.2_[C-2A]_[T-1C]_H4.3_A4.1_F4.1_T4.2_[G10A]_[T11C]] was over 2300 nM.

In the case of UCUCUUUGUAUUUUUCUCUCUU (ssRNA) [Ib_S1_P5E.1_K5.1_C5.1_H5.1_A5.1_[A7T]_F5.1_[A10C]_T5.1], the affinity, expressed as Kd, was 23.8 nM. With ACAAACAAACACUAUUAACACAAAC (ssRNA) [Id_ii_S3_P4E.4_K4.3_C4.2_[C-2A]_[T-1A]_H4.3_A4.1_F4.1_T4.2_[G10A]_[T11C]] the figure was over 2300 nM; with ACAAACUCACACUAUUAGUACAAAC (ssRNA) [Id_ii_S3_P4E.4_K4.3_C4.2_[C-2T]_[T-1C]_H4.3_A4.1_F4.1_T4.2], over 2300 nM; with ACAAACACACACUAUUAGCACAAAC (ssRNA) [Id_ii_S3_P4E.4_K4.3_C4.2_[C-2A]_[T-1C]_H4.3_A4.1_F4.1_T4.2_[T11C]], over 2300 nM.

With ACAAACGUACACUAUUAUCACAAAC (ssRNA) [Id_ii_S3_P4E.4_K4.3_C4.2_[C-2G]_H4.3_A4.1_F4.1_T4.2_[G10T]_[T11C]], the dissociation constant Kd is 39.9 nM. With ACAAACAAACACUAUUAUGACAAAC (ssRNA) [Id_ii_S3_P4E.4_K4.3_C4.2_[C-2A]_[T-1A]_H4.3_A4.1_F4.1_T4.2_[G10T]_[T11G]] the figure was over 2300 nM. The value for ACAAACAGACACUAUUAGAACAAAC (ssRNA) [Id_ii_S3_P4E.4_K4.3_C4.2_[C-2A]_[T-1G]_H4.3_A4.1_F4.1_T4.2_[T11A]] was over 2300 nM; that for ACAAACUCACACUAUUAAGACAAAC (ssRNA) [Id_ii_S3_P4E.4_K4.3_C4.2_[C-2T]_[T-1C]_H4.3_A4.1_F4.1_T4.2_[G10A]_[T11G]] was over 2300 nM; that for ACAAACAUACACUAUUAACACAAAC (ssRNA) [Id_ii_S3_P4E.4_K4.3_C4.2_[C-2A]_H4.3_A4.1_F4.1_T4.2_[G10A]_[T11C]] was 1470 nM. With ACAAACUUACACUAUUAGAACAAAC (ssRNA) [Id_ii_S3_P4E.4_K4.3_C4.2_[C-2T]_H4.3_A4.1_F4.1_T4.2_[T11A]] the figure was over 2300 nM. Consider ACAAACUCACACUAUUAUUACAAAC (ssRNA) [Id_ii_S3_P4E.4_K4.3_C4.2_[C-2T]_[T-1C]_H4.3_A4.1_F4.1_T4.2_[G10T]], for which the dissociation constant (Kd) is over 2300 nM.

Consider ACAAACAUACACUAUUAGAACAAAC (ssRNA) [Id_ii_S3_P4E.4_K4.3_C4.2_[C-2A]_H4.3_A4.1_F4.1_T4.2_[T11A]], for which the Kd turned out to be 846 nM. Turning to ACAAACAUACACUAUUAUAACAAAC (ssRNA) [Id_ii_S3_P4E.4_K4.3_C4.2_[C-2A]_H4.3_A4.1_F4.1_T4.2_[G10T]_[T11A]], binding was characterised by a dissociation constant (Kd) of 902 nM. With ACAAACAUACACUAUUAAAACAAAC (ssRNA) [Id_ii_S3_P4E.4_K4.3_C4.2_[C-2A]_H4.3_A4.1_F4.1_T4.2_[G10A]_[T11A]] the figure was 1130 nM; with ACAAACAAACACUAUUAGCACAAAC (ssRNA) [Id_ii_S3_P4E.4_K4.3_C4.2_[C-2A]_[T-1A]_H4.3_A4.1_F4.1_T4.2_[T11C]], over 2300 nM.
